{"source": "patent US20190330337A1", "about": "“Tunable Chimeric Antigen Receptors” (AUTOLUS LIMITED, priority 2016, published 2019)", "key": {"streptavidin": {"target": "streptavidin (Streptomyces avidinii, UniProt P22629)", "sequence (P22629 37-163 limits assumed)": "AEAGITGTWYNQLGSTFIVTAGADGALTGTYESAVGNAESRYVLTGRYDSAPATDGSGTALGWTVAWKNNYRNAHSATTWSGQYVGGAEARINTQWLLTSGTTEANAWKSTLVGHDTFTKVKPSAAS", "settings": "biotin mimicking peptide binding streptavidin; read-out: affinity; cited from earlier work"}, "[1]": {"test_system": "SupT1 cells engineered to express CD33", "assay": "Activation of TetCAR BW5 T-cells challenged with SupT1 cells expressing CD33", "type": "cell-based", "description": "A bicistronic construct was expressed in BW5 T cells as a single transcript which self-cleaves at the 2A site to yield a signalling component which comprises TiP fused via a flexible linker to the endodomain of CD3-Zeta; and a receptor component which comprises a CD33 recognizing scFv, a spacer derived from the Fc domain of IgG1, a CD4 derived transmembrane and intracellular domain; and TetR (FIG. 19a). A control was also expressed which was identical except that TiP was absent from the signalling component (FIG. 19b).\nThe BW5 T-cells were challenged with wild-type SupT1 cells or SupT1 cells engineered to express CD33 in the absence of tetracycline or in the presence of increasing concentrations of tetracycline.\nControl TetCAR which lacks the TiP domain was also transduced into BW5. Once again, these T-cells were challenged with wild-type SupT1 cells or SupT1 cells engineered to express CD33 in the absence or in the presence of increasing concentration of Tetracycline."}, "CD19 (human)": {"target": "CD19 (human) (UniProt P15391)", "sequence (P15391 20-291 limits assumed)": "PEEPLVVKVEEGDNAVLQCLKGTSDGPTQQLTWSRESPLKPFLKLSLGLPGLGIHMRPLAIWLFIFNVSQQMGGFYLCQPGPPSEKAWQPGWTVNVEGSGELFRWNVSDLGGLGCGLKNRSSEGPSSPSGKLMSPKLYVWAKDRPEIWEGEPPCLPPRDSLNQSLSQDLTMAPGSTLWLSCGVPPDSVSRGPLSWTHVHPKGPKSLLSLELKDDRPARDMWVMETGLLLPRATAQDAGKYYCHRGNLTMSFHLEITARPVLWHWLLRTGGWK", "assay": "SPR (Biacore T200), scFv-Fc captured on anti-IgG CM5 chip, interaction partner protein injected, 1:1 Langmuir fit"}, "CD22 [2]": {"target": "T1, CD22 (Homo sapiens, UniProt P20273)", "assay": "SPR (Biacore T200), scFv-Fc captured on anti-IgG CM5 chip, interaction partner protein injected, 1:1 Langmuir fit"}, "CD22 [3]": {"target": "T1, CD22", "assay": "Biacore affinity determination of CD22 binders", "type": "binding", "settings": "scFv format, FIG. 6, result in words", "procedure": "A CD19-binder (CD19ALAb) was identified, humanised and the binding affinities of both murine and humanised IgGs and scFvs were identified and compared with the “gold-standard” anti-CD19 binder, fmc63. In parallel, and a CD22-binder (CD22ALAb) was identified, humanised and the binding affinities of both murine and humanised IgGs and scFvs were identified and compared with the “gold-standard” anti-CD22 binder, M971.\nExperiments were performed on a Biacore T200 instrument using HBS-P as running and dilution buffer. BIAevaluation software Version 2.0 was used for data processing. For binding kinetics, mouse anti-human IgG or goat anti-mouse IgG was covalently coupled to a CM5 Sensor Chip. IgG or scFv-Fc proteins were captured, and various concentrations of interaction partner protein injected over the flow cell at a flow rate of 30 μl/min. Kinetic rate constants were obtained by curve fitting according to a 1:1 Langmuir binding model. Bulk refractive index differences were subtracted using a blank control flow cell in which capture antibody had been immobilized to the same level as the active surface. A double reference subtraction was performed using buffer alone."}}, "note": "Entries after “also recorded” stand apart in the source; their conditions may differ.", "data": [{"molecule": "Biotin mimicking peptide CHPQGPPC (SEQ ID NO: 35) (Biotin mimicking peptide, ccstreptag)", "values": [{"measurement": "Kd", "setting": "streptavidin", "result": 230, "unit": "nM"}]}, {"molecule": "Biotin mimicking peptide DVEAWLGAR (SEQ ID NO: 31) (Biotin mimicking peptide, short nanotag)", "values": [{"measurement": "Kd", "setting": "streptavidin", "result": 17, "unit": "nM"}]}, {"molecule": "Biotin mimicking peptide WRHPQFGG (SEQ ID NO: 32) (Biotin mimicking peptide, streptag)", "values": [{"measurement": "Kd", "setting": "streptavidin", "result": 72000, "unit": "nM"}]}, {"molecule": "CN(C)[C@@H]1C(O)=C(C(N)=O)C(=O)[C@@]2(O)C(O)=C3C(=O)c4c(O)cccc4[C@@](C)(O)[C@H]3C[C@@H]12", "note": "[tetracycline, reference compound]", "values": [{"measurement": "concentration of tetracycline at which activation is fully inhibited", "setting": "[1]", "result": 100, "unit": "nM"}]}, {"molecule": "Biotin mimicking peptide DVEAWLDERVPLVET (SEQ ID NO: 30) (Biotin mimicking peptide, long nanotag)", "values": [{"measurement": "Kd", "setting": "streptavidin", "result": 3.6, "unit": "nM"}]}, {"molecule": "Murine CD19ALAb scFv (scFv, part only; not given: Fc part and VH-VL linker, not shown: another chain or arm of the molecule; a dimerising Fc or GST; small tags and cut ends) scFv: QVQLQQSGAELVRPGSSVKISCKASGYAFSSYWMNWVKQRPGQGLEWIGQIWPGDGDTNYNGKFKGKATLTADESSSTAYMQLSSLASEDSAVYFCARRETTTVGRYYYAMDYWGQGTTVTVSSDIQLTQSPASLAVSLGQRATISCKASQSVDYDGDSYLNWYQQIPGQPPKLLIYDASNLVSGIPPRFSGSGSGTDFTLNIHPVEKVDAATYHCQQSTEDPWTFGGGTKLEIK", "values": [{"measurement": "Kd", "setting": "CD19 (human)", "result": 1.85, "unit": "nM"}, {"measurement": "koff", "setting": "CD19 (human)", "result": 0.000328, "unit": "s⁻¹"}, {"measurement": "kon", "setting": "CD19 (human)", "result": 178000, "unit": "M⁻¹ s⁻¹"}]}, {"molecule": "Humanised CD22ALAb scFv (scFv, part only; not given: Fc part and VH-VL linker, not shown: another chain or arm of the molecule; a dimerising Fc or GST; small tags and cut ends) scFv: EVQLVESGAEVKKPGSSVKVSCKASGYTFTNYWINWVRQAPGQGLEWIGNIYPSDSFTNYNQKFKDRATLTVDKSTSTAYLELRNLRSDDTAVYYCTRDTQERSWYFDVWGQGTLVTVSSDIVMTQSPATLSVSPGERATLSCRSSQSLVHSNGNTYLHWYQQKPGQAPRLLIYKVSNRFSGVPARFSGSGSGVEFTLTISSLQSEDFAVYYCSQSTHVPWTFGQGTRLEIK", "values": [{"measurement": "Kd", "setting": "CD22 [2]", "result": 32, "unit": "nM"}, {"measurement": "koff", "setting": "CD22 [2]", "result": 0.00226, "unit": "s⁻¹"}, {"measurement": "kon", "setting": "CD22 [2]", "result": 68300, "unit": "M⁻¹ s⁻¹"}]}, {"molecule": "humanised CD22ALAb: Humanised CD22ALAb scFv, SEQ ID No. 26 (protein, CAR, Humanised CD22ALAb scFv sequence) scFv: EVQLVESGAEVKKPGSSVKVSCKASGYTFTNYWINWVRQAPGQGLEWIGNIYPSDSFTNYNQKFKDRATLTVDKSTSTAYLELRNLRSDDTAVYYCTRDTQERSWYFDVWGQGTLVTVSSDIVMTQSPATLSVSPGERATLSCRSSQSLVHSNGNTYLHWYQQKPGQAPRLLIYKVSNRFSGVPARFSGSGSGVEFTLTISSLQSEDFAVYYCSQSTHVPWTFGQGTRLEIK", "values": [{"measurement": "binding affinity to CD22", "setting": "CD22 [3]", "result": "comparable binding affinity to CD22 to murine CD22ALAb; also recorded: significantly higher binding affinity to CD22 than the gold-standard CD22-binding antibody, M971"}]}, {"molecule": "murine CD22ALAb: Murine CD22ALAb scFv, SEQ ID No. 25 (protein, CAR, Murine CD22ALAb scFv sequence) scFv: QVQLQQPGAELVRPGASVKLSCKASGYTFTNYWINWVKQRPGQGLEWIGNIYPSDSFTNYNQKFKDKATLTVDKSSSTAYMQLSSPTSEDSAVYYCTRDTQERSWYFDVWGAGTTVTVSSDVVMTQTPLSLPVSLGDQASISCRSSQSLVHSNGNTYLHWYLQKPGQSPKLLIYKVSNRFSGVPDRFSGSGSGTDFTLKISRVEAEDLGLYFCSQSTHVPWTFGGGTKLEIK", "values": [{"measurement": "binding affinity to CD22", "setting": "CD22 [3]", "result": "significantly higher binding affinity to CD22 than the gold-standard CD22-binding antibody, M971"}]}]}
